Earlier results on one substance are cited in paper PMC9395234.

For orientation: pKd means the negative decadic logarithm of the Kd, by convention in mol/L.

This data set concerns the target C4BP (Homo sapiens) (UniProt P04003).

pKd: −log10 of the molar value.

Sequence of UniProt P04003 (P04003 49-597, chain 1 of 2): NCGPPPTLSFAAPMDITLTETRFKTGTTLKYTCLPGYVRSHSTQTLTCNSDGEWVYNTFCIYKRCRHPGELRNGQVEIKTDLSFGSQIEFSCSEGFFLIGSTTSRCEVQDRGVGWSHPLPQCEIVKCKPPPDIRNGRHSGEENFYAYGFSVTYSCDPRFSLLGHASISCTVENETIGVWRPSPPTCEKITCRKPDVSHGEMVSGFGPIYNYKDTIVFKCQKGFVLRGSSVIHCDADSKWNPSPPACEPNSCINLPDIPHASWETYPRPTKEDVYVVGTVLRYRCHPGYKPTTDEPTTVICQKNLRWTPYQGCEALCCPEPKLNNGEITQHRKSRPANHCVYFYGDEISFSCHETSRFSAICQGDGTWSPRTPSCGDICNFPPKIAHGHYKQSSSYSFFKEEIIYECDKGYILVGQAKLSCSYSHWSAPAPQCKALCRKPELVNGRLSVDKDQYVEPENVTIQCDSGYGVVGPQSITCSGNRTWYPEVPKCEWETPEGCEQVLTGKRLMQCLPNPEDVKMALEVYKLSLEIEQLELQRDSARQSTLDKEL
Sequence of UniProt P04003 (P20851 18-252, chain 2 of 2, further chain): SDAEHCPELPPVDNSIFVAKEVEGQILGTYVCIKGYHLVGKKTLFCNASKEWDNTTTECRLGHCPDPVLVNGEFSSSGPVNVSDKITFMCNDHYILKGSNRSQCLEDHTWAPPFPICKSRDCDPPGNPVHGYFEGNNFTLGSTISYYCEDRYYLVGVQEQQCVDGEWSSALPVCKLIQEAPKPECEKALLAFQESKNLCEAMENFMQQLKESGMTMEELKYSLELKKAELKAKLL

Protein S (from UniProt P07225): the negative logarithm of the Kd (pKd) is 10.00.
